According to patent US20040213795A1:

Target: Human PD-1 fusion protein (human) (UniProt Q15116)
Experiment: ELISA on coated human PD-1/IgG chimera (2.5 ug/ml), HRP anti-murine antibody

Sequence of Human PD-1 fusion protein (human) (Q15116 other isoform, or with tags, fused parts or gaps): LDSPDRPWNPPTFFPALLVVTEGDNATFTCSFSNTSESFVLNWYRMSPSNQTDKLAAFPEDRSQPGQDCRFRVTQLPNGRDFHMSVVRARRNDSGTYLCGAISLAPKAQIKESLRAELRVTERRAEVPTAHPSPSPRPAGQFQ

EC50 (read off the curve): 1 µg/mL
Substance: Murine anti-human PD-1 antibody J110
